Measurements reported in US10138466B2, “Compositions and methods for differentiating stem cells into cell populations comprising beta-like cells” (REGENERATIVE MEDICAL SOLUTIONS, INC., priority 2014, dated 2018).

Test system: hESCs
Experiment: Activin A alone in serum-free medium, pancreatic cell differentiation
Format: cell-based, human
Conditions: Activin A at 5 ng/ml, 50 ng/ml, or 100 ng/ml in serum-free medium
Source text: Activin is a member of the TGF-β superfamily and has various effects on diverse biological systems (Abe Y, et al. Growth Factors 2004 June; 22(2):105-10; herein incorporated by reference in its entirety). Activin A has been reported to have a role in the induction of definitive endoderm from hESCs (D'Amour, K. A., et al. (2005); herein incorporated by reference in its entirety).

B1: Activin A: member of the TGF-β superfamily (protein, UniProt P08476 311-426, looked up)
Inhibin beta A chain: GLECDGKVNICCKKQFFVSFKDIGWNDWIIAPSGYHANYCEGECPSHIAGTSGSSLSFHSTVINHYRMRGHSPFANLKSCCVPTKLRPMSMLYYDDGQNIIKKDIQNMIVEECGCS
modifications: Inhibin beta A chain
notes: member of the TGF-β superfamily
- induction of pancreatic cell differentiation: cannot induce pancreatic cell differentiation
